These results are taken from patent US20250320302A1 (EVOTEC INTERNATIONAL, published 2025).

Read-outs that look alike come from different tables or passages of the source. Where only a bound is given, the exact number is not on record here.

Assay in all cases: cell-based or functional assay
The target in assay [1] is human IFNγ receptor on HEK-Blue IFN-γ cells (human).
Assay [2] deals with T1, human CD40 (human, UniProt P25942 21-277).
Assay [3] concerns the target human IFNγ receptor on HEK-Blue IFN-γ cells (human). The source holds these as a separate data set.
Assay [4] addresses T1, human CD40. This is another data set of the same source.
For assay [5], the target named is human IFNγ receptor on HEK-Blue IFN-γ cells (human). The source holds these as a separate data set.

T1 sequence (P25942 21-277): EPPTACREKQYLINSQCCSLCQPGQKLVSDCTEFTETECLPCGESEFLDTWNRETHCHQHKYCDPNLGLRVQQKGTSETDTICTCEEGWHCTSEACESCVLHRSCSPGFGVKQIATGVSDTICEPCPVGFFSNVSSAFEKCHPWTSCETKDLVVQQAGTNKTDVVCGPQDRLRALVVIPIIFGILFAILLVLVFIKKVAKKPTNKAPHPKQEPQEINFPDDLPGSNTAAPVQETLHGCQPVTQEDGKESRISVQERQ

B1: IFA43 (antibody, human IgG2, kappa)
heavy: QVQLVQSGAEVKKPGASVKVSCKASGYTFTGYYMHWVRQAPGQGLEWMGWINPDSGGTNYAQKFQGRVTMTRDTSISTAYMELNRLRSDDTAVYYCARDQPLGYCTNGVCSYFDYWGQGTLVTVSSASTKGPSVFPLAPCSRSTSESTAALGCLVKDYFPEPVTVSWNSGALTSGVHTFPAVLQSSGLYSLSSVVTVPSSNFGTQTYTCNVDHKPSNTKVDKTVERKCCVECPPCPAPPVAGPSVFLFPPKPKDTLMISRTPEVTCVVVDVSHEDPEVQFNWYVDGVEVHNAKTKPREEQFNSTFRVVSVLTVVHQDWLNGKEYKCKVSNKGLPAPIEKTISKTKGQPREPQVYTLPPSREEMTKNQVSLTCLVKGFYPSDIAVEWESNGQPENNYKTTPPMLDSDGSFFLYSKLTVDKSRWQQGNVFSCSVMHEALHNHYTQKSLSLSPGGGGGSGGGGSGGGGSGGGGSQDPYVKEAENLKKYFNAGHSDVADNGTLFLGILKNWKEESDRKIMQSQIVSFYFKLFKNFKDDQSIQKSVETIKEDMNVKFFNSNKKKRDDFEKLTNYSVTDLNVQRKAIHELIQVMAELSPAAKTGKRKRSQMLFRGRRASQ
light: DIQMTQSPSSVSASVGDRVTITCRASQGIYSWLAWYQQKPGKAPNLLIYTASTLQSGVPSRFSGSGSGTDFTLTISSLQPEDFATYYCQQANIFPLTFGGGTKVEIKRTVAAPSVFIFPPSDEQLKSGTASVVCLLNNFYPREAKVQWKVDNALQSGNSQESVTEQDSKDSTYSLSSTLTLSKADYEKHKVYACEVTHQGLSSPVTKSFNRGEC
For the molecule B1, the “IFNγ EC50 (HEK-Blue IFNγ reporter cells)” value in assay [1] was below 0.01 ng/mL; in assay [3], below 0.001 ng/mL. Also, the “CD40 EC50 (HEK-Blue CD40L NFκB-SEAP reporter cells)” value in assay [2] is 50.8 ng/mL.

B2: IFA125 (antibody, human IgG2, kappa)
heavy: QVQLVESGGGVVQPGKSLRLSCAASGFTFSSNGIHWVRQAPGKGLEWVAVIWSDGSNKFYADSVKGRFTISRDNSKNTLYLQMNSLRAEDTAVYYCARASGSGSYYNFFDYWGQGTLVTVSSASTKGPSVFPLAPCSRSTSESTAALGCLVKDYFPEPVTVSWNSGALTSGVHTFPAVLQSSGLYSLSSVVTVPSSNFGTQTYTCNVDHKPSNTKVDKTVERKCCVECPPCPAPPVAGPSVFLFPPKPKDTLMISRTPEVTCVVVDVSHEDPEVQFNWYVDGVEVHNAKTKPREEQFNSTFRVVSVLTVVHQDWLNGKEYKCKVSNKGLPAPIEKTISKTKGQPREPQVYTLPPSREEMTKNQVSLTCLVKGFYPSDIAVEWESNGQPENNYKTTPPMLDSDGSFFLYSKLTVDKSRWQQGNVFSCSVMHEALHNHYTQKSLSLSPGGGGGSGGGGSGGGGSGGGGSQDPYVKEAENLKKYFNAGHSDVADNGTLFLGILKNWKEESDRKIMQSQIVSFYFKLFKNFKDDQSIQKSVETIKEDMNVKFFNSNKKKRDDFEKLTNYSVTDLNVQRKAIHELIQVMAELSPAAKTGKRKRSQMLFRGRRASQ
light: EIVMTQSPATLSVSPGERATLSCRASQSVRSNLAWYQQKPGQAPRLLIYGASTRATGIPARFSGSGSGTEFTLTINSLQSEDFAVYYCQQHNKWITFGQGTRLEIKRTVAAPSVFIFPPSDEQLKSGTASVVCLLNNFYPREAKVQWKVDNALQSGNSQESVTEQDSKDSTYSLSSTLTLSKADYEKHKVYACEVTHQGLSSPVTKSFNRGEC
For the molecule B2, the “CD40 EC50 (HEK-Blue CD40L NFκB-SEAP reporter cells)” value in assay [4] turned out to be 8.8 ng/mL. For the same molecule, the “IFNγ EC50 (HEK-Blue IFNγ reporter cells)” value in assay [5] was determined as 0.142 ng/mL.
